# US20200115416A1 (REGENTS OF THE UNIVERSITY OF MINNESOTA, published 2020)
# Read-outs that look alike come from different tables or passages of the source. Square brackets hold non-standard residues; d marks the D form.
# How the values were obtained:
# [1] = biological target: T1, mouse melanocortin-3 receptor (mouse, UniProt P33033 1-323); assay: cell-based or functional assay
# [2] = biological target: T2, mouse melanocortin-4 receptor (mouse, UniProt P56450 1-332); assay: cell-based or functional assay
# [3] = biological target: T3, human melanocortin-4 receptor (human, UniProt P32245 1-332); assay: cell-based or functional assay
# [4] = biological target: T3, human melanocortin-4 receptor; assay: displacement of 125I-AGRP, HEK293 cells expressing hMC4R
# Experimental: (§1) Competitive binding affinity experiments were performed on HEK-293 cells stably expressing the wildtype hMC4R. […] The assay media was carefully aspirated and cells were washed once with assay buffer. Cell were lysed with 500 μL 0.1 M NaOH and 500 μL 1% Triton X-100 for a minimum of 10 min. […] All experiments were performed with duplicate data points and in at least two independent experimental replicates. […] Concentration-response curves and IC₅₀ values were generated and analyzed by the PRISM program (version 4.0. GraphPad Inc.) by a nonlinear regression method. The standard error of the mean (SEM) was derived from the IC₅₀ values from at least two independent experimental replicates.
# [5] = biological target: T4, mouse melanocortin-1 receptor (mouse, UniProt Q01727 1-315); assay: cell-based or functional assay
# [6] = biological target: T5, mouse melanocortin-5 receptor (mouse, UniProt P41149 1-325); assay: cell-based or functional assay
# [7] = biological target: T1, mouse melanocortin-3 receptor; assay: cell-based or functional assay; remark: listed apart in the source
# [8] = biological target: T4, mouse melanocortin-1 receptor; assay: cell-based or functional assay; remark: listed apart in the source
# [9] = biological target: T5, mouse melanocortin-5 receptor; assay: cell-based or functional assay; remark: listed apart in the source
# [10] = biological target: T4, mouse melanocortin-1 receptor; assay: cell-based or functional assay; remark: listed apart in the source
# [11] = biological target: T5, mouse melanocortin-5 receptor; assay: cell-based or functional assay; remark: listed apart in the source
# [12] = biological target: T3, human melanocortin-4 receptor; assay: displacement of 125I-NDP-MSH, HEK293 cells expressing hMC4R
# Experimental: as §1
# [13] = biological target: T4, mouse melanocortin-1 receptor; assay: cell-based or functional assay; remark: listed apart in the source
# [14] = biological target: T2, mouse melanocortin-4 receptor; assay: cell-based or functional assay; remark: listed apart in the source
# [15] = biological target: T1, mouse melanocortin-3 receptor; assay: cell-based or functional assay; remark: listed apart in the source
# [16] = biological target: T2, mouse melanocortin-4 receptor; assay: cell-based or functional assay; remark: listed apart in the source
# [17] = biological target: T5, mouse melanocortin-5 receptor; assay: cell-based or functional assay; remark: listed apart in the source
# T5 sequence (P41149 whole entry): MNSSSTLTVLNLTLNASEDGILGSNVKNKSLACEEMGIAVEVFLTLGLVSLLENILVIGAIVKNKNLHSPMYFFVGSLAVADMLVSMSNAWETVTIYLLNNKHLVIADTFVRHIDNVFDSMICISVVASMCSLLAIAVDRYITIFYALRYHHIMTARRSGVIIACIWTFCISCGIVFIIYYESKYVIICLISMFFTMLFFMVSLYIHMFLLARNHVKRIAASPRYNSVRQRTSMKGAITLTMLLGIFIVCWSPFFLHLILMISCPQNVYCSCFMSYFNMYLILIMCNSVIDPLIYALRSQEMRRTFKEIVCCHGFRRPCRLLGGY
# T2 sequence (P56450 whole entry): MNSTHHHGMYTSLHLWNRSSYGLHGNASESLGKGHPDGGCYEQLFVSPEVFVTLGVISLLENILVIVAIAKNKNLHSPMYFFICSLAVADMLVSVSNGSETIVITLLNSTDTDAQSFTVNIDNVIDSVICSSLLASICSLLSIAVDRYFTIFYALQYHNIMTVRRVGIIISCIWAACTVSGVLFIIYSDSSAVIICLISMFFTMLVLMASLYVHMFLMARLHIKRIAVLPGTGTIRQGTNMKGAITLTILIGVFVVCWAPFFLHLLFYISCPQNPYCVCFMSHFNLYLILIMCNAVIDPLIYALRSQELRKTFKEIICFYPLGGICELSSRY
# T3 sequence (P32245 whole entry): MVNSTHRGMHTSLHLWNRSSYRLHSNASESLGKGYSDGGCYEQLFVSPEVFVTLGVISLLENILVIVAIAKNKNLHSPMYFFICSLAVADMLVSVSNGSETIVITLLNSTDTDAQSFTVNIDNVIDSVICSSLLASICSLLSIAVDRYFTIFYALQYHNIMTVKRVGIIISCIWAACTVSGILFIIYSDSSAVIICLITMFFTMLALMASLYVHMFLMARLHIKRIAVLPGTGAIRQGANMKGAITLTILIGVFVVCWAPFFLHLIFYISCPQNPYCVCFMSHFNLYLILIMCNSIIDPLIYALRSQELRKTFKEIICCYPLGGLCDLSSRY
# T4 sequence (Q01727 whole entry): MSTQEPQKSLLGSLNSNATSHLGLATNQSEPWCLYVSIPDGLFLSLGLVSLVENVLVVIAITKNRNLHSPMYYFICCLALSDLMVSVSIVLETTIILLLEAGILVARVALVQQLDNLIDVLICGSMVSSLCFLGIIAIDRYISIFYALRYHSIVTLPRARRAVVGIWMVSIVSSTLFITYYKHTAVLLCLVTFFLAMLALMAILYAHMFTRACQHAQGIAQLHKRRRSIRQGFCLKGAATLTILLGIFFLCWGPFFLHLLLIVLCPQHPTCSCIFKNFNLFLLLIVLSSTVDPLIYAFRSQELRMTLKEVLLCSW
# T1 sequence (P33033 whole entry): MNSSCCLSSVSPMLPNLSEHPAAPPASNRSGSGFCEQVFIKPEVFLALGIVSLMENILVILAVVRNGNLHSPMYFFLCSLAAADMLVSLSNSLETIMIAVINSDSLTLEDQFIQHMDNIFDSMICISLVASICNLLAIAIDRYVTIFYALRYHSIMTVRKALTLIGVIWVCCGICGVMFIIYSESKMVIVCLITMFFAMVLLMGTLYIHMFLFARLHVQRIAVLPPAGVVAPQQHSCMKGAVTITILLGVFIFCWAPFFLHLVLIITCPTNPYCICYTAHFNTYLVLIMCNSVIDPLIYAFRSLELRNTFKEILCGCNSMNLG
binder,measurement,setting,value
"RCVRLHESCLGQQVPCCDPCATCYCRFFNAFCYCRKLGTAMNPCSRT (ligand, human, UniProt O00253 86-132, looked up, range 86-132; also called C-terminal domain of AGRP) [hAGRP(86-132)]","antagonist pA2 (Schild, agonist NDP-MSH)",[1],8.7
same,"antagonist pA2 (Schild, agonist NDP-MSH)",[2],8.7
same,"antagonist pA2 (Schild, agonist NDP-MSH)",[3],8.8
same,inverse agonist apparent potency (EC50),[3],2.4 nM
same,"inverse agonist, % decrease from basal signal",[3],-35%
same,IC50,[4],12 nM
cyclo(PRFFNAS[dP]) [c[Pro-Arg-Phe-Phe-Asn-Ala-Ser-DPro]],% activation at 100 µM (cAMP AlphaScreen),[5],35%
same,"inverse agonist, % change from basal cAMP at 100 µM",[6],-55%
PRFFXAFP (head-to-tail cyclic; DArg at 2; DPhe at 3; Dap at 5; DPro at 8) [c[Pro-DArg-DPhe-Phe-Dap-Ala-Phe-DPro]],agonist EC50 (cAMP AlphaScreen),[7],> 100000 nM
same,"antagonist pA2 (Schild, agonist NDP-MSH)",[7],6
same,agonist EC50 (cAMP AlphaScreen),[8],800 nM
same,"partial agonist efficacy, % of NDP-MSH",[8],70%
same,"inverse agonist, % change from basal cAMP at 100 µM",[9],-30%
cyclo(PRFFAAF[dP]) [c[Pro-Arg-Phe-Phe-Ala-Ala-Phe-DPro]],agonist EC50 (cAMP AlphaScreen),[1],> 100000 nM
same,"antagonist pA2 (Schild, agonist NDP-MSH)",[1],< 5.5
same,agonist EC50 (cAMP AlphaScreen),[10],> 100000 nM
same,inverse agonist apparent potency,[11],250 nM
same,"inverse agonist, % decrease from basal cAMP",[11],-20%
same,agonist EC50 (cAMP AlphaScreen),[2],> 100000 nM
same,"antagonist pA2 (Schild, agonist NDP-MSH)",[2],7.32
same,"inverse agonist, % decrease from basal signal",[3],-35%
cyclo(PRFFDAF[dP]) [c[Pro-Arg-Phe-Phe-Asp-Ala-Phe-DPro]],IC50,[12],3600 nM
same,agonist EC50 (cAMP AlphaScreen),[1],> 100000 nM
same,"antagonist pA2 (Schild, agonist NDP-MSH)",[1],< 5.5
same,agonist EC50 (cAMP AlphaScreen),[10],> 100000 nM
same,"inverse agonist, % change from basal cAMP at 100 µM",[11],-25%
same,agonist EC50 (cAMP AlphaScreen),[2],> 100000 nM
same,"antagonist pA2 (Schild, agonist NDP-MSH)",[2],6.79
same,IC50,[4],1300 nM
cyclo(PRFFSAF[dP]) [c[Pro-Arg-Phe-Phe-Ser-Ala-Phe-DPro]],agonist EC50 (cAMP AlphaScreen),[1],> 100000 nM
same,"antagonist pA2 (Schild, agonist NDP-MSH)",[1],5.9
same,agonist EC50 (cAMP AlphaScreen),[10],> 100000 nM
same,inverse agonist apparent potency,[11],140 nM
same,"inverse agonist, % decrease from basal cAMP",[11],-25%
same,agonist EC50 (cAMP AlphaScreen),[2],> 100000 nM
same,"antagonist pA2 (Schild, agonist NDP-MSH)",[2],7.7
same,"inverse agonist, % decrease from basal signal",[3],-25%
cyclo(PRFFNAF[dP]) (also: assayed as TFA salt) [c[Pro-Arg-Phe-Phe-Asn-Ala-Phe-DPro]],agonist EC50 (cAMP AlphaScreen),[13],2800 nM
same,"partial agonist, % receptor stimulation",[13],80%
same,% maximal NDP-MSH response at 100 µM (cAMP AlphaScreen),[10],25%
same,"inverse agonist, % decrease from basal signal",[3],-30%
cyclo(PRFFEAF[dP]) [c[Pro-Arg-Phe-Phe-Glu-Ala-Phe-DPro]],IC50,[12],2500 nM
same,agonist EC50 (cAMP AlphaScreen),[1],> 100000 nM
same,"antagonist pA2 (Schild, agonist NDP-MSH)",[1],< 5.5
same,agonist EC50 (cAMP AlphaScreen),[10],20500 nM
same,inverse agonist apparent potency,[11],700 nM
same,"inverse agonist, % decrease from basal cAMP",[11],-10%
same,agonist EC50 (cAMP AlphaScreen),[2],> 100000 nM
same,"antagonist pA2 (Schild, agonist NDP-MSH)",[2],7
same,IC50,[4],1400 nM
PRFFXAFP (head-to-tail cyclic; DArg at 2; Dap at 5; DPro at 8) [c[Pro-DArg-Phe-Phe-Dap-Ala-Phe-DPro]],% maximal NDP-MSH response at 100 µM (cAMP AlphaScreen),[7],25%
same,"antagonist pA2 (Schild, agonist NDP-MSH)",[7],5.7
same,% maximal NDP-MSH response at 100 µM (cAMP AlphaScreen),[8],25%
same,agonist EC50 (cAMP AlphaScreen),[9],> 100000 nM
same,% maximal NDP-MSH response at 100 µM (cAMP AlphaScreen),[14],25%
cyclo(PRFFNAD[dP]) (SMILES C[C@@H]1NC(=O)[C@H](CC(N)=O)NC(=O)[C@H](Cc2ccccc2)NC(=O)[C@H](Cc2ccccc2)NC(=O)[C@H](CCCNC(=N)N)NC(=O)[C@@H]2CCCN2C(=O)[C@H]2CCCN2C(=O)[C@H](CC(=O)O)NC1=O) [c[Pro-Arg-Phe-Phe-Asn-Ala-Asp-DPro]],"antagonist pA2 (Schild, agonist NDP-MSH)",[15],< 5.5
same,% activation at 100 µM (cAMP AlphaScreen),[5],40%
same,"inverse agonist, % change from basal cAMP at 100 µM",[6],-25%
same,"antagonist pA2 (Schild, agonist NDP-MSH)",[16],< 5.5
cyclo(PRFFNAG[dP]) [c[Pro-Arg-Phe-Phe-Asn-Ala-Gly-DPro]],% activation at 100 µM (cAMP AlphaScreen),[5],60%
same,"inverse agonist, % change from basal cAMP at 100 µM",[6],-25%
PRFFXAFP (head-to-tail cyclic; DPhe at 3; Dap at 5; DPro at 8) [c[Pro-Arg-DPhe-Phe-Dap-Ala-Phe-DPro]],agonist EC50 (cAMP AlphaScreen),[7],> 100000 nM
same,"antagonist pA2 (Schild, agonist NDP-MSH)",[7],5.92
same,agonist EC50 (cAMP AlphaScreen),[8],230 nM
same,agonist EC50 (cAMP AlphaScreen),[9],> 100000 nM
same,% maximal NDP-MSH response at 100 µM (cAMP AlphaScreen),[14],20%
PRFFXAFP (head-to-tail cyclic; DPhe at 4; Dap at 5; DPro at 8) [c[Pro-Arg-Phe-DPhe-Dap-Ala-Phe-DPro]],agonist EC50 (cAMP AlphaScreen),[7],> 100000 nM
same,"antagonist pA2 (Schild, agonist NDP-MSH)",[7],< 5.5
same,agonist EC50 (cAMP AlphaScreen),[8],800 nM
same,"partial agonist efficacy, % of NDP-MSH",[8],75%
same,agonist EC50 (cAMP AlphaScreen),[9],> 100000 nM
PRFFXAFP (head-to-tail cyclic; DArg at 2; DPhe at 3 and 4; Dap at 5; DPro at 8) [c[Pro-DArg-DPhe-DPhe-Dap-Ala-Phe-DPro]],agonist EC50 (cAMP AlphaScreen),[7],> 100000 nM
same,"antagonist pA2 (Schild, agonist NDP-MSH)",[7],< 5.5
same,agonist EC50 (cAMP AlphaScreen),[8],2200 nM
same,"partial agonist efficacy, % of NDP-MSH",[8],60%
same,"inverse agonist, % change from basal cAMP at 100 µM",[9],-15%
PRFFXAFP (head-to-tail cyclic; DPhe at 3 and 4; Dap at 5; DPro at 8) [c[Pro-Arg-DPhe-DPhe-Dap-Ala-Phe-DPro]],agonist EC50 (cAMP AlphaScreen),[7],> 100000 nM
same,"antagonist pA2 (Schild, agonist NDP-MSH)",[7],5.7
same,agonist EC50 (cAMP AlphaScreen),[8],700 nM
same,agonist EC50 (cAMP AlphaScreen),[9],> 100000 nM
PRFFXAFP (head-to-tail cyclic; Dap at 5; DPro at 8) [c[Pro-Arg-Phe-Phe-Dap-Ala-Phe-DPro]],agonist EC50 (cAMP AlphaScreen),[13],1600 nM
same,"partial agonist, % receptor stimulation",[13],80%
same,"EC50 (cAMP AlphaScreen, inverse agonist)",[17],> 100000 nM
same,agonist EC50 (cAMP AlphaScreen),[1],> 100000 nM
same,"antagonist pA2 (Schild, agonist NDP-MSH)",[1],6.52
same,% maximal NDP-MSH response at 100 µM (cAMP AlphaScreen),[10],30%
same,inverse agonist apparent potency,[11],60 nM
same,"inverse agonist, % decrease from basal cAMP",[11],-15%
same,"inverse agonist, % decrease from basal signal",[3],-50%
PRFFXAFP (head-to-tail cyclic; DArg at 2; DPhe at 4; Dap at 5; DPro at 8) [c[Pro-DArg-Phe-DPhe-Dap-Ala-Phe-DPro]],agonist EC50 (cAMP AlphaScreen),[7],> 100000 nM
same,"antagonist pA2 (Schild, agonist NDP-MSH)",[7],5.7
same,agonist EC50 (cAMP AlphaScreen),[8],450 nM
same,"partial agonist efficacy, % of NDP-MSH",[8],70%
same,"inverse agonist, % change from basal cAMP at 100 µM",[9],-20%
